In patent US20200199204A1 (UNITED STATES OF AMERICA AS REPRESENTED BY THE SECRETARY …, published 2020):
Where a chain is given by its changes, count along the chain named.

B1: CAP256-VRC26.08 (antibody, V domains shown)
VH: EVQLVESGGGVVQPGRSLTLSCAASQFTFSNYGMHWVRQAPGKGLEWVASVSNDGTKKYHGDSVWGRFTISRDNSKNTLFLQMSSLRAEDTAVYFCVRDQREDECEEWWSDYYDFGRELPCRKFRGLGLAGIFDIWGHGTMVTVSS
VL: QSALTQPPSVSAAPGQKVTISCSGNSSNIGNNFVSWYQQVPGTAPKLLLYETYRRPSGIPDRFSGSKSGTSATLAITGLQTGDEADYYCTVWGVRKGVGAVFGTGTKVTVLG
B2: CAP256-VRC26.09 (antibody, V domains shown)
VH: EVQLVESGGGVVQPGRSLTLSCAASQFNFANYGMHWVRQAPGKGLEWVASISNDGTKKYHEESVWGRFTISKDNSKSTLFLQMNSLRIEDTALYFCVKDQREDECEEWWSDYYDFGRELPCRKSRGLGLAGIFDMWGHGTMVTVSS
VL: B1 VL with V40L, L49I, T52N, Y53N, T77S, Y88W, T90A, K96R, V98A, T104A
B3: CAP256-VRC26.07 (antibody, V domains shown)
VH: EVQLVESGGGVVQPGRSLRLSCVGSQFSFNRYGMHWVRQAPGKGLEWVAGISFDGTDRYHADNVWGRFTISRDNSKNTLYLQMSSLRAEDTALYYCAKDLREDECEEWWSDYYDFGKKLPCRKSRGVAGVFDKWGQGTMVTVSS
VL: QAVLTQPPSVSAAPGQNVTISCSGSGSNIGNNFVSWYQQRPGTAPKLLIYESNKRPSGIPDRFSGSKSGTSATLAITGLQTGDEAYYYCATWAARLNSARVFGTGTMVTVLG

Experiments:
Experiment in all cases: cell-based or functional assay
[1] = target: HIV-1 Env of strain CNE3 (clade AE), on Env-pseudovirus (HIV-1 strain CNE3)
[2] = target: HIV-1 Env of strain TH976.17 (clade AE), on Env-pseudovirus (HIV-1 strain TH976.17)
[3] = target: SIV Env of SIVmac251.30 (nonHIV control), on Env-pseudovirus (SIVmac251.30)

| Binder | IC50, neutralization of Env-pseudovirus (TZM-bl assay) [1] [µg/mL] | IC50, neutralization of Env-pseudovirus (TZM-bl assay) [2] [µg/mL] | IC50, neutralization of Env-pseudovirus (TZM-bl assay) [3] [µg/mL] |
| --- | --- | --- | --- |
| B1 | > 50 | > 50 | > 50 |
| B2 | > 50 | > 50 | > 50 |
| B3 | > 50 | > 50 | – |
